Reference: paper PMC7771244

Experiments:
[1] = target: 5FW-BPTF (bromodomain of the bromodomain- and PHD finger-containing transcription factor, labelled with 5-fluorotryptophan) (human); test: NMR titration
[2] = target: 5FW-CECR2 (bromodomain of CECR2, labelled with 5-fluorotryptophan) (human); test: NMR titration
[3] = target: 5FW-labeled BRD4(2) (second bromodomain of BRD4) (human) (UniProt O60885); test: NMR titration
[4] = target: 5FW-labeled BRD2(2) (second bromodomain of BRD2) (human); test: NMR titration
[5] = target: His9-tagged BPTF bromodomain (human); test: AlphaScreen or HTRF
[6] = target: GST-BPTF (glutathione S-transferase-tagged BPTF, not labeled with fluorine) (human); test: SPR

Row | Substance | Kd [1] [µM] | other results
1 | H2A.Z I K4ac,K13ac N-terminal tail peptide | 780 | –
2 | H2A.Z II K4ac,K7ac N-terminal tail peptide | 660 | –
3 | H2A.Z II K4ac,K11ac N-terminal tail peptide | 760 | –
4 | H2A.Z II K7ac,K11ac N-terminal tail peptide | 780 | –
5 | H2A.Z II K7ac,K13ac N-terminal tail peptide | 310 | IC50 [5]: 830 µM; Kd [6]: 195 µM
6 | H2A.Z II K11ac,K13ac N-terminal tail peptide | 790 | –

Further lines, with some results ahead:

Row | Kd [1] [µM] | Substance | other results
7 | 630 | H2A.Z I K4ac,K15ac N-terminal tail peptide | –
8 | 520 | H2A.Z I K7ac,K13ac N-terminal tail peptide | Kd [2]: 130 µM; fold higher affinity than for H2A.Z II K7ac,K13ac [3]: 2 fold; Kd [4]: 680 µM; fold higher affinity than for H2A.Z II K7ac,K13ac [4]: 2 fold
9 | 1440 | H2A.Z I K11ac,K13ac N-terminal tail peptide | –
10 | 790 | H2A.Z II K4ac,K13ac N-terminal tail peptide | –
11 | 430 | H2A.Z II K4ac,K15ac N-terminal tail peptide | –
